# Experimental data reported in EP3240566B1 (Development Center for Biotechnology, dated 2020).
# Columns and labels:
# human ENO1 protein [1] = biological target: T1, human ENO1 protein (human, UniProt P06733 1-434); test: SPR, BIAcore 2000, ENO1 injected, 25 degree C, 1:1 Langmuir
# T1 construct: also called ENOl; alpha-enolase
# human ENO1 protein [2] = biological target: T1, human ENO1 protein; test: ENO1 binding ELISA
# T1 sequence (P06733 whole entry): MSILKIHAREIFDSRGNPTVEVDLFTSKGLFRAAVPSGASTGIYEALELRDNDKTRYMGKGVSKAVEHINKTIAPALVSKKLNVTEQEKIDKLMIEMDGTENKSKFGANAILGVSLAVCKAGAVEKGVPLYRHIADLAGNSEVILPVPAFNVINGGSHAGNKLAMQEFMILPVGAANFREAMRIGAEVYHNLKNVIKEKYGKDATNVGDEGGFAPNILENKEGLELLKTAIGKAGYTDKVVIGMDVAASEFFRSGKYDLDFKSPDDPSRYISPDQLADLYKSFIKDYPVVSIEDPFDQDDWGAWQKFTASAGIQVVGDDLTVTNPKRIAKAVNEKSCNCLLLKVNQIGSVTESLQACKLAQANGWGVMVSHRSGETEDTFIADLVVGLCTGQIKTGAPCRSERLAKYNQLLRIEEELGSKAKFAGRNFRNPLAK
Kd (human ENO1 protein [1]),Kd (human ENO1 protein [2]),Binder
0.219 nM,0.0365 nM,"hum EN10 mAb IMGT (antibody, IgG1, V domains shown, also called humanized EN10 mAb IMGT; Hum EN10 IMGT) VH: QVQLVQSGAEVKKPGASVKVSCKASGYTFTSCVMNWVRQAPGQGLEWMGYINPYNDGTKYNEKFKGRVTMTTDTSTSTAYMELRSLRSDDTAVYYCAREGFYYGNFDNWGQGTLVTVSS VL: DIQMTQSPSSLSASVGDRVTITCRASENIYSYLTWYQQKPGKAPKLLIYNAKTLPEGVPSRFSGSGSGTDFTLTISSLQPEDFATYYCQHHYGTPYTFGQGTKLEIKR"
0.5 nM,–,"hum EN10 mAb 4D5 (antibody, IgG1, V domains shown, also called humanized EN10 mAb 4D5; hum ENO10mAb 4D5) VH: EVQLVESGGGLVQPGGSLRLSCAASGYTFTSCVMNWVRQAPGKGLEWVAYINPYNDGTKYNEKFKGRFTISRDDSKNTLYLQMNSLRAEDTAVYYCAREGFYYGNFDNWGQGTLVTVSS VL: DIQMTQSPSSLSASVGDRVTITCRASENIYSYLTWYQQKPGKAPKLLIYNAKTLPEGVPSRFSGSGSGTDFTLTISSLQPEDFATYYCQHHYGTPYTFGQGTKLEIKR"
